“Also recorded” adds a separate entry of the source.
Key:
[1] = target: T1, BMPR1A (Homo sapiens, UniProt P36894); assay: Biopanning of Ph.D.-12 phage library on immobilized BMPR1A-Fc; format: binding; conditions: peptide displayed on p3 of M13 phage; 3 rounds of panning
T1 construct: purchased G&P Biosciences
Protocol: (§1) The Ph.D.™-12 phage library was diluted in tris-buffered saline mixed with Tween-20 (TBS+0.1% v/v Tween-20 and abbreviated TBST) for a final concentration of 2×10^11 phage in 1 mL of TBST. The diluted library was then pipetted onto one of the wells of a 12-well poly-L-lysine plate followed by rocking the plate gently for 60 minutes at room temperature. […] This supernatant served as the starting phage library for subsequent binding selections. The phages which stuck to the plate were discarded.
(§2) This procedure is only applicable if the charge of the desired protein to be immobilized is negative, determined by checking the pI value of the protein. […]. This procedure was written for 12-well plates coated in poly-L-lysine (positively charged). Separate solutions of BMPR1A-Fc and BMPR2-Fc were prepared at 80 μg/ml in Tris-buffered saline (pH 7.5). In separate wells and on separate poly-L-lysine coated 12-well plates, 0.3 ml of each solution of receptor was added. The solutions of BMPR1A-Fc and BMPR2-Fc were swirled around the plate surface until the entire surface was wet. The plates were then incubated overnight at 4° C. with gentle agitation in a humidified container (a sealed plastic box with damp paper towels). Each individual receptor was now immobilized.
(§3) The following selection procedure is based off of the direct coating procedure outlined in the Ph.D.™-12 Phage Display Libraries instructional manual (New England Biolabs) with some alterations. This procedure was carried out after immobilizing the targets BMPR1A-Fc and BMPR2-Fc in a 12-well poly-L-lysine coated plate. A stock solution of tetracycline was prepared (20 mg/ml in 1:1 ethanol:water). The coating solution containing the target receptors was poured off followed by firmly slapping the plates face down on a clean paper towel. Each well was then filled with blocking buffer (0.1 M NaHCO3 (pH 8.6), 5 mg/mL BSA, 0.02% NaN3. Filter sterilize, store at 4° C.) and incubated for 1 hour at 4° C. The blocking solution was then poured off followed by firmly slapping the plates down against a clean paper towel. Each plate was washed rapidly 6 times with Tris-buffered saline mixed with Tween-20 (TBS+0.1% v/v Tween-20). The plate was slapped against a clean paper towel each time. 1 ml of the phage library created from the negative selection process was then pipetted onto each of the target coated wells. The plates were then rocked gently at room temperature for 60 min. The non-binding phages were then discarded by pouring off the supernatant and slapping the plate face-down on a clean paper towel. The plate was then washed 10 times with TBST followed by slapping the plate face-down on a clean paper towel each time (a clean section of paper towel was used each time to prevent cross-contamination). The bound phages were then eluted by incubating with a nonspecific disruption buffer (0.2 M Glycine-HCl (pH 2.2), 1 mg/ml bovine serum albumin (BSA) for 15 minutes. The eluate (immersed in the disruption buffer) was then pipetted into a microcentrifuge tube followed by neutralization with 150 μl of 1 M Tris-HCl (pH 9.1). A small portion (˜1 μl) of this eluate could be titered and sequenced if desired. The rest of the eluate was amplified (see amplification of phage library section). Once amplified, the eluate was also titered. Determine the concentration of amplified phages by counting the blue plaques in titering as described. Dilute the amplified library to contain 2×10^11 phages in 1 mL of TBS (as little as 10^9 plaque forming units per ml can be used if there is not enough). A second poly-L-lysine 12-well plate was then coated with the target receptors to allow for a second round of biopanning carried out using the same steps except that the Tween-20 concentration in the wash steps was raised to 0.5% (v/v). The eluate from the second round was then amplified, titered and used in an additional 3rd round of panning on newly receptor coated plates. […]

[2] = target: T2, BMPR2 (Homo sapiens, UniProt Q13873); assay: Biopanning of Ph.D.-12 phage library on immobilized BMPR2-Fc; format: binding; conditions: peptide displayed on p3 of M13 phage; 3 rounds of panning
T2 construct: purchased G&P Biosciences
T2 sequence (Q13873 27-150 limits assumed): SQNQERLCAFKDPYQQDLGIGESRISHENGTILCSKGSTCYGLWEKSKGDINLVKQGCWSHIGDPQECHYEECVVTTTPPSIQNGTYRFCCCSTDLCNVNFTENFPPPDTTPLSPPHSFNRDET
Protocol: as §1, §2, §3

[3] = target: T2, BMPR2; assay: Enzyme-linked immune sorbent assay for receptor binding (BMPR2); conditions: peptide on p3 of M13 phage; absorbance 450 nm; n=4; vs wild type phage
Description: (§4) Groups having the same lowercase letter assigned (above the bar) were not statistically different from each other. Groups having different letters assigned (above the bar) were statistically different from each other. […] The primary antibody was mouse anti-g3p (p8) IgG. The secondary antibody was anti-mouse IgG conjugated with horseradish peroxidase. The substrate, 3,3′,5,5′-Tetramethylbenzidine was detected at 450 nm after stopping the reaction with 1 M HCl.
(§5) Blocking buffer (0.1 M NaHCO3 (pH 8.6), 5 mg/ml BSA. Filter sterilized, stored at 4° C.) was prepared. TBS (50 mM Tris-HCl (pH 7.5), 150 mM NaCl, autoclaved, stored at room temperature) was prepared. Separate solutions of the target receptors were then made. For BMPR1A, a 10 μg/ml stock solution was made. For BMPR2, a 10 μg/ml solution was also made. Separate wells with n=4 for each different peptide bearing phage group were then coated with one of the receptors. […] After a brief pilot test, it should be noted that using 10^10 phage/ml was determined to work best, but other concentrations of virus also worked consistently. […] Then, […] of freshly prepared 3,3′,5,5′-Tetramethylbenzidine (TMB) was added to each well and the absorbance at 370 nm and 652 nm was monitored for 1 hour using an ELISA plate reader. […] The absorbance at 450 nm for each well was then measured.

[4] = test system: human mesenchymal stem cells (hMSCs); assay: Live cell binding through immunofluorescence; format: cell-based; conditions: 10^12 phages/ml
Protocol: Human mesenchymal stem cells (hMSCs) were grown to roughly 60% plate coverage in a 48-well tissue culture plate according to the company Lonza's culturing protocols. […] The hMSCs were then blocked with 0.5% BSA (dissolved in cell media) for 1 hour. The cell media for the hMSCs was then replaced with 1 ml of new cell media having of concentration of 10^12 phages/ml. Next, the plates were washed once with 400 μl of phosphate buffered saline (PBS) at a pH of 7.4. The hMSCs were then incubated with Anti-M13 Bacteriophage Coat Protein g8p antibody [RL-ph2] (ab9225) at a 1:1000 dilution in cell media (200 μl per well). The wells were then washed again with PBS (400 μl per wash). Next, the hMSCs were incubated with the secondary antibody, Goat-anti mouse AF-488 (Abcam) for 1 hour (1 ug/ml final concentration of antibody in media). The wells were then washed again with PBS (400 μl per wash). A Hoechst nuclear stain was used to stain the nuclei (PureBlu™ Hoechst 33342 Nuclear Staining Dye #1351304 from BioRad) according to the company's protocol. Cell Mask™ Orange Plasma Membrane Stain was used to stain membranes (CellMask™ Orange Plasma Membrane Stain Catalog number: C10045 from Thermo Fisher Scientific) according to the company's protocol. The phages binding to the cells were then imaged on a Nikon Eclipse Ti fluorescent microscope.

[5] = target: T1, BMPR1A; assay: Enzyme-linked immune sorbent assay for receptor binding (BMPR1A); conditions: peptide on p3 of M13 phage; absorbance 450 nm; n=4; vs wild type phage
Description: as §4
as §5, with “receptors. The coating was done by adding 100 μl of the target solution to wells of a 96-well plate followed by swirling until the surface was completely wet. The plates were then allowed to incubate overnight at 4° C. with gentle agitation in a humidified container (a plastic box lined with damp paper towels). Any excess target solution was then removed, and the plate was slapped face-down on a clean paper towel. The wells of the plate were then blocked with 200 μl of blocking buffer for 1 hour at room temperature. […] The blocking buffer was then removed from each plate followed by 5 washes with 200 μl of TBST. Each time the plate was slapped against a clean section of paper towel face-down.” for “receptors.”

T1 sequence (P36894 24-152 limits assumed): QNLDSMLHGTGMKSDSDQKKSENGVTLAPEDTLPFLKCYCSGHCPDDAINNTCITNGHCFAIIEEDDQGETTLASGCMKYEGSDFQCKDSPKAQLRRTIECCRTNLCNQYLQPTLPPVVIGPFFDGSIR

| Sequence | Binding to BMPR1A found by biopanning (frequency among sequenced plaques) [1] | Binding to BMPR2 found by biopanning (frequency among sequenced plaques) [2] | Relative binding strength in ELISA to BMPR2 [3] | Binding of peptide-bearing phages to live hMSCs [4] | Relative binding strength in ELISA to BMPR1A [5] |
| --- | --- | --- | --- | --- | --- |
| DYHDPSLPTLRK (Completely synthesized in the lab - Ph.D.-12 Phage Display Peptide Library Kit (New England Biolabs)) | discovered to bind | discovered to bind | – | – | – |
| GNNPLHVHHDKR (Completely synthesized in the lab - Ph.D.-12 Phage Display Peptide Library Kit (New England Biolabs)) | discovered to bind | discovered to bind | – | – | – |
| NAKYPTMRPGPK (Completely synthesized in the lab - Ph.D.-12 Phage Display Peptide Library Kit (New England Biolabs)) | discovered to bind | discovered to bind | – | – | – |
| NAKYPTMRPGPL (Completely synthesized in the lab - Ph.D.-12 Phage Display Peptide Library Kit (New England Biolabs)) | discovered to bind | discovered to bind | – | – | – |
| RDYHPRDHTATW (Completely synthesized in the lab - Ph.D.-12 Phage Display Peptide Library Kit (New England Biolabs)) | discovered to bind | most frequent peptide; also recorded: discovered to bind | statistically significant binders | bound to what appeared to be the same location as the outer membrane; also recorded: demonstrated an ability to bind to the outer membrane | – |
| TAKSLPMRPGPL (Completely synthesized in the lab - Ph.D.-12 Phage Display Peptide Library Kit (New England Biolabs)) | discovered to bind | discovered to bind | – | – | – |
| TAKYLPMRPGPL (Completely synthesized in the lab - Ph.D.-12 Phage Display Peptide Library Kit (New England Biolabs)) | most frequently obtained peptide; also recorded: discovered to bind | discovered to bind | – | – | best binders |
| TSKYLTMRPGPK (Completely synthesized in the lab - Ph.D.-12 Phage Display Peptide Library Kit (New England Biolabs)) | discovered to bind | discovered to bind | – | – | – |

Source: patent US20210369812A1, “OSTEOINDUCTIVE PEPTIDES, COMPOSITIONS, IMPLANTS, AND METHODS OF USE” (The Board of Regents of the University of Oklahoma, priority 2018, published 2021)
